# According to US20200332005A1:
# Target: N-terminal of CD73
# Assay: plate binding assay, axis Binding activity (OD450) against Ab (µg/ml); panel Binding to N-terminal of CD73
substance,measurement,value
MEDI-9447 (Medimmune) (antibody),EC50 (read off the curve),0.01 µg/mL
